According to patent US20260152557A1 (Adimab, published 2026):
Substitutions are numbered along the chain they refer to.

B1: Fab of ADI-48587 (Antibody No. 2) (Fab, V domains shown)
VH: QVQLVQSGAEVKKPGASVKVSCKASGFNIKDYYMHWVRQAPGQRLEWMGWIDLENANTIYDAKFQGRVTITRDTSASTAYMELSSLRSEDTAVYYCARDHYHRYFYDVWGQGTLVTVSS
VL: DIVMTQSPDSLAVSLGERATINCKSSQSLLNARTGHNYLAWYQQKPGQPPKLLIYWASTRESGVPDRFSGSGSGTDFTLTISSLQAEDVAVYYCKQSHSHRTFGGGTKVEIK
notes: Fab made by papain digestion of the human IgG1 (yeast- or CHO-produced); also called Antibody No. 2 Fab; ADI-48587 Fab
B2: Fab of ADI-26906 (Antibody No. 1) (Fab, V domains shown)
VH: B1 VH with H100A, H102G
VL: B1 VL with H36K, H98Y, H100R
notes: Fab made by papain digestion of the human IgG1 (yeast- or CHO-produced); also called Antibody No. 1 Fab; ADI-26906 Fab
B3: Fab of ADI-74967 (Antibody No. 5) (Fab, V domains shown)
VH: B1 VH
VL: B1 VL with D1G, H36K
notes: Fab made by papain digestion of the human IgG1 (yeast- or CHO-produced); also called Antibody No. 5 Fab; ADI-74967 Fab
B4: Fab of ADI-74968 (Antibody No. 6) (Fab, V domains shown)
VH: B1 VH with H100A
VL: B1 VL with H98Y
notes: Fab made by papain digestion of the human IgG1 (yeast- or CHO-produced); also called Antibody No. 6 Fab; ADI-74968 Fab
B5: Fab of ADI-74965 (Antibody No. 3) (Fab, V domains shown)
VH: B1 VH with H100A
VL: B1 VL
notes: Fab made by papain digestion of the human IgG1 (yeast- or CHO-produced); also called Antibody No. 3 Fab; ADI-74965 Fab
B6: ADI-26906 (Antibody No. 1), human IgG1 (antibody, V domains shown)
VH: B1 VH with H100A, H102G
VL: B1 VL with H36K, H98Y, H100R
notes: Non-pH-dependent parent; Tested as human IgG1 (yeast-produced aglycosylated, or CHO-produced); also called Ab No. 1
B7: ADI-74965 (Antibody No. 3), human IgG1 (antibody, V domains shown)
VH: B1 VH with H100A
VL: B1 VL
notes: Tested as human IgG1 (yeast-produced aglycosylated, or CHO-produced)
B8: ADI-74967 (Antibody No. 5), human IgG1 (antibody, V domains shown)
VH: B1 VH
VL: B1 VL with D1G, H36K
notes: as for B7
B9: ADI-74968 (Antibody No. 6), human IgG1 (antibody, V domains shown)
VH: B1 VH with H100A
VL: B1 VL with H98Y
notes: as for B7

The binders below were run against T1, human CD3εδ-Fc heterodimer (Hu CD3ε Fc / CD3δ Fc-HIS) (human, UniProt P04234 22-100) (assay: SPR (Biacore 8K), CHO-produced Fab, monovalent, pH 6.0).
T1 construct: range 22-100; Produced in HEK 293 cells with a heterologous signal peptide; heterodimer purified by Ni Sepharose and Mono Q; also called Hu CD3εδ Fc heterodimer; CD3εδ Fc-HIS heterodimer; not shown: Fc-HIS part of CD3δ Fc-HIS
T1 sequence (chain, as listed by the source mutant, form in doubt, chain 1 of 2): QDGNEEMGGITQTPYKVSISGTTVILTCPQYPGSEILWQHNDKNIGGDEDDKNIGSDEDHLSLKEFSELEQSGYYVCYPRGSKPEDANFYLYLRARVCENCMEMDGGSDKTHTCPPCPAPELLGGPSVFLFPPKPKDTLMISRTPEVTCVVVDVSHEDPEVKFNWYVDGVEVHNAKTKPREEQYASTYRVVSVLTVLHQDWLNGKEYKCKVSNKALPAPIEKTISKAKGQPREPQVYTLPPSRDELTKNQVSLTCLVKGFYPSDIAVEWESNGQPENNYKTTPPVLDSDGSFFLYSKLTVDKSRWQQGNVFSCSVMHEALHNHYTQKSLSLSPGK
T1 sequence (P04234 22-100, stated change not applied, form in doubt, chain 2 of 2): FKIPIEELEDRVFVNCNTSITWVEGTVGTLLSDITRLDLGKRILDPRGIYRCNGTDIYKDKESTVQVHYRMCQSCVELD
Method: (§1) Anti-CD3 antibodies (Antibody Nos. 1-13) were produced as human IgG1 antibodies in yeast or Chinese hamster ovary (CHO) cells, and Fab fragments were generated from the IgG1 antibodies by papain digestion and purified IgGs produced in yeast were aglycosylated. CHO produced IgGs had standard CH2 glycosylation. […] Monovalent binding affinity to human or cynomolgus CD3εδ-Fc at pH 7.4 and pH 6.0 were measured via surface plasmon resonance (SPR) using the BIACORE® 8K (Cytiva, previously GE Healthcare Life Sciences) system and analyzed using BIACORE® Evaluation Software.
(§2) BIACORE® KD measurements (surface plasmon resonance; SPR). BIACORE® affinity measurements were performed generally as previously described. Briefly, human CD3εδ-Fc heterodimer produced as described above was immobilized to a NiNTA sensor chip in a BIACORE® 8K (Cytiva, previously GE Healthcare Life Sciences) to a response level of ˜500 RUs. […] The sensor chip was doubly regenerated between cycles using 0.35 M EDTA and 0.1 M NaOH. The resulting data were double reference subtracted and fit to a 1:1 binding model using BIACORE® Evaluation Software.
With B1 the Kd was 43.2 nM.
In the case of B2, the Kd is reported as 1.25 nM.
Binder B3 has a Kd of 8.16 nM.
B4 gave a Kd of 6.37 nM.
B5 gave a Kd of 10.9 nM.

These binders were tested against T2, cynomolgus CD3εδ-Fc heterodimer (Cy CD3ε Fc / CD3δ Fc-HIS) (cynomolgus, UniProt Q95LI8 22-100) in the same assay as above.
T2 construct: range 22-100; Produced in HEK 293 cells; also called Cy CD3εδ Fc heterodimer; not shown: Fc-HIS part of CD3δ Fc-HIS
T2 sequence (chain, as listed by the source mutant, form in doubt, chain 1 of 2): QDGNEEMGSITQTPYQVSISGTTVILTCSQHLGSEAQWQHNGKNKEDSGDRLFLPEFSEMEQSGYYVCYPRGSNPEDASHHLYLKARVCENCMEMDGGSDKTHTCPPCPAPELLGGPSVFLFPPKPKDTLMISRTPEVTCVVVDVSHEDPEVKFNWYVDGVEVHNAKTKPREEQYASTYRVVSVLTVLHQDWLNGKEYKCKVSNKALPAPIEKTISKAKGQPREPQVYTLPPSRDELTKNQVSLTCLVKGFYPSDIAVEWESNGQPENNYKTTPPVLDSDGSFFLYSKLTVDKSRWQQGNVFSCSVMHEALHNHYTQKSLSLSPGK
T2 sequence (Q95LI8 22-100, stated change not applied, form in doubt, chain 2 of 2): as the sequence (P04234 22-100, stated change not applied, form in doubt, chain 2 of 2) above, with I5V, N15K, I20V, S32T, D33N, I34N, T64A, S74N counted along it
Method: as §1, §2
B1 showed a Kd of 25.4 nM.
B2 was tested, and the Kd was 1.9 nM.
B3 was tested, and the Kd was 11.6 nM.
With B4 the Kd was 6.18 nM.
B5 was tested, and the Kd was 11.3 nM.

What follows are binders tested against T1, human CD3εδ-Fc heterodimer (Hu CD3ε Fc …) (assay: SPR (Biacore 8K), CHO-produced Fab, monovalent, pH 7.4).
Method: as §1, §2
With B2 the Kd was 1.09 nM.
For B3, the Kd was 55.5 nM.
B4 was tested, and the Kd was 47.5 nM.

Each binder was assayed against T2, cynomolgus CD3εδ-Fc heterodimer (Cy …) in the same assay as above.
Method: as §1, §2
B1 was tested, and the Kd was 62.7 nM.
With B2 the Kd was 1.09 nM.
B3 gave a Kd of 73.7 nM.
B4 showed a Kd of 46.5 nM.

What follows are binders tested against T1, human CD3εδ-Fc heterodimer (Hu CD3ε Fc …) (assay: SPR (Biacore 8K), yeast-produced Fab, monovalent, pH 6.0).
Method: as §1, §2
B1 gave a Kd of 15.7 nM.
Binder B2 has a Kd of 1.9 nM.
B3 was tested, and the Kd was 8.45 nM.
B4 gave a Kd of 6.07 nM.
B5 gave a Kd of 10.5 nM.

The binders below were run against T1, human CD3εδ-Fc heterodimer (Hu CD3ε Fc …) (assay: SPR (Biacore 8K), yeast-produced Fab, monovalent, pH 7.4).
Method: as §1, §2
B2 showed a Kd of 2.4 nM.

These binders were tested against T3, cynomolgus CD3 on HSC-F cells (cynomolgus, UniProt Q95LI5 22-198) (assay: flow cytometry, yeast-produced IgG 100 nM on HSC-F cells, pH 6.0).
T3 construct: whole, on cells; also called Cyno HSC-F; cynomolgus HSC-F cells
T3 sequence (Q95LI5 22-198): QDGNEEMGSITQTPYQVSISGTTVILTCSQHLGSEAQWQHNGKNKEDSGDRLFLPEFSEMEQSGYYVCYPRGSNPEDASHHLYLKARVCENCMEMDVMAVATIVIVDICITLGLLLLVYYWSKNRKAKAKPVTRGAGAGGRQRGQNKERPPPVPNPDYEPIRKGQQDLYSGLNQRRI
Method: (§3) Anti-CD3 antibodies Antibody Nos. 1-13 were produced as aglycosylated IgGs comprising a IgG1 Fc region in yeast cells. Binding to human or cynomolgus CD3-expressing cells (human CD3+ Jurkat cells or cynomolgus HSC-F cells, respectively) at pH 7.4 and pH 6.0 were measured by fluorescence-activated single cell sorting (FACS). Normalized cell binding (NCB) values were calculated based on median fluorescence intensity (MFI) values, CD3 negative Jurkat cells were used as a negative control.
(§4) Cell binding assay, CD3+ and CD3− human Jurkat cells (ATCC) and cynomolgus HSC-F cells (NIH) were thawed and washed with cold PBSF buffer, pH 7.4 (PBS+0.1% BSA, pH 7.4). About 200,000 cells were aliquoted per well of a 96-well plate (FACS Assay Plate VWR BD 353263) and pelleted by centrifugation (5 minutes at 500×g). The cells were washed with either PBSF pH 7.4 or PBSF pH 6.0 (PBS+0.1% BSA, pH 6.0), and then resuspended in 100 μl in either PBSF pH 7.4 or PBSF pH 6.0 with IgG antibody (100 nM) produced in yeast as described above. The mixture (cells+antibody) was incubated for 20 minutes on ice, then washed twice with either PBSF pH 7.4 or PBSF pH 6.0. Cells were resuspended in 50 μl of propidium iodide (Roche; 1:500 dilution) and anti-human IgG-RPE (Southern Biotech; 1:100 dilution) prepared in either PBSF pH 7.4 or PBSF pH 6.0, then incubated for 20 minutes on ice in the dark before cells were washed twice with either PBSF pH 7.4 or PBSF pH 6.0. Binding was analyzed on FACS Canto 11.
For B6, the NCB was 560.
In the case of B7, the NCB is reported as 551.
In the case of B8, the NCB is reported as 512.
Binder B9 has an NCB of 548.

These binders were tested against T3, cynomolgus CD3 on HSC-F cells (assay: flow cytometry, yeast-produced IgG 100 nM on HSC-F cells, pH 7.4).
Method: as §3, §4
B6 showed an NCB of 167.
B7 showed an NCB of 74.
Binder B8 has an NCB of 81.
B9 showed an NCB of 106.

The binders below were run against T4, human CD3 on CD3+ Jurkat cells (human, UniProt P07766 23-207) (assay: flow cytometry, yeast-produced IgG 100 nM on CD3+ Jurkat cells, pH 6.0).
T4 construct: whole, on cells; The whole CD3 complex stands on the cells; also called Human CD3 Jurkat; human CD3+ Jurkat cells
T4 sequence (P07766 23-207): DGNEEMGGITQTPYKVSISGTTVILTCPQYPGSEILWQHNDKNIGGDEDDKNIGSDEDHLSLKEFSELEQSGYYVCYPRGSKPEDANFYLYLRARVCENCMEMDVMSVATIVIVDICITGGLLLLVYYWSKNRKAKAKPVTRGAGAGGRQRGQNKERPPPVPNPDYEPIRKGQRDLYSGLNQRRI
Method: as §3, §4
B6 showed an NCB of 203.
B7 was tested, and the NCB was 181.
In the case of B8, the NCB is reported as 185.
Work on B9 yielded an NCB of 197.

These binders were tested against T4, human CD3 on CD3+ Jurkat cells (assay: flow cytometry, yeast-produced IgG 100 nM on CD3+ Jurkat cells, pH 7.4).
Method: as §3, §4
Work on B6 yielded an NCB of 149.
B7 showed an NCB of 39.
Work on B8 yielded an NCB of 34.
Binder B9 has an NCB of 62.

These binders were tested against T1, human CD3εδ-Fc heterodimer (Hu CD3ε Fc …) (assay: BLI (Octet), CD3εδ-Fc on AHC sensor, CHO-derived Fab 100 nM in solution, pH 6.0).
B1 gave a Kd of 65.9 nM.
Binder B2 has a Kd of 5.81 nM.
For B3, the Kd was 24.9 nM.
With B4 the Kd was 14.8 nM.
B5 gave a Kd of 24.4 nM.

What follows are binders tested against T1, human CD3εδ-Fc heterodimer (Hu CD3ε Fc …) (assay: BLI (Octet), CD3εδ-Fc on AHC sensor, CHO-derived Fab 100 nM in solution, pH 7.4).
With B2 the Kd was 6.03 nM.
For B4, the Kd was 69.3 nM.
With B5 the Kd was 142 nM.

The binders below were run against T2, cynomolgus CD3εδ-Fc heterodimer (Cy …) (assay: BLI (Octet), CHO-produced IgG on AHC sensor, CD3εδ-Fc 100 nM in solution, pH 6.0).
Method: (§5) Anti-CD3 antibodies Antibody Nos. 1-13 were produced as human IgG1 antibodies in yeast or CHO cells. IgGs produced in yeast were aglycosylated, CHO) produced IgGs had standard CH2 glycosylation. Binding affinity to human or cynomolgus CD3εδ-Fc at pH 7.4 and pH 6.0 was measured via biolayer interferometry (BLI) using the ForteBio OCTET® HTX system and analyzed using the ForteBio software.
(§6) Kinetics were analyzed using the 1:1 binding model.
In the case of B6, the Kd is reported as 5.89 nM.
Work on B7 yielded a Kd of 33.5 nM.
B8 gave a Kd of 37 nM.
B9 was tested, and the Kd was 17 nM.

Each binder was assayed against T2, cynomolgus CD3εδ-Fc heterodimer (Cy …) (assay: BLI (Octet), CHO-produced IgG on AHC sensor, CD3εδ-Fc 100 nM in solution, pH 7.4).
Method: as §5, §6
With B6 the Kd was 5.87 nM.

Each binder was assayed against T1, human CD3εδ-Fc heterodimer (Hu CD3ε Fc …) (assay: BLI (Octet), yeast-produced IgG on AHC sensor, CD3εδ-Fc 100 nM in solution, pH 6.0).
Method: as §5, §6
In the case of B6, the Kd is reported as 2.84 nM.
B7 showed a Kd of 6.68 nM.
For B8, the Kd was 5.94 nM.
For B9, the Kd was 5.23 nM.

These binders were tested against T2, cynomolgus CD3εδ-Fc heterodimer (Cy …) in the same assay as above.
Method: as §5, §6
With B6 the Kd was 2.5 nM.
Binder B7 has a Kd of 6.56 nM.
B8 gave a Kd of 7.38 nM.
B9 gave a Kd of 5.26 nM.

The binders below were run against T1, human CD3εδ-Fc heterodimer (Hu CD3ε Fc …) (assay: BLI (Octet), yeast-produced IgG on AHC sensor, CD3εδ-Fc 100 nM in solution, pH 7.4).
Method: as §5, §6
With B6 the Kd was 4.35 nM.
For B7, the Kd was 13.7 nM.
For B8, the Kd was 14.5 nM.
In the case of B9, the Kd is reported as 13 nM.

These binders were tested against T2, cynomolgus CD3εδ-Fc heterodimer (Cy …) in the same assay as above.
Method: as §5, §6
In the case of B6, the Kd is reported as 4.1 nM.
Binder B7 has a Kd of 21.8 nM.
Binder B8 has a Kd of 21.9 nM.
B9 showed a Kd of 20.5 nM.
